Measurements from paper PMC10786891, “Massively parallel profiling of RNA-targeting CRISPR-Cas13d”.

T1: EsCas13d, nuclease-dead (Eubacterium siraeum, UniProt B0MS50, R295A;H300A;R849A;H854A)
T1 sequence: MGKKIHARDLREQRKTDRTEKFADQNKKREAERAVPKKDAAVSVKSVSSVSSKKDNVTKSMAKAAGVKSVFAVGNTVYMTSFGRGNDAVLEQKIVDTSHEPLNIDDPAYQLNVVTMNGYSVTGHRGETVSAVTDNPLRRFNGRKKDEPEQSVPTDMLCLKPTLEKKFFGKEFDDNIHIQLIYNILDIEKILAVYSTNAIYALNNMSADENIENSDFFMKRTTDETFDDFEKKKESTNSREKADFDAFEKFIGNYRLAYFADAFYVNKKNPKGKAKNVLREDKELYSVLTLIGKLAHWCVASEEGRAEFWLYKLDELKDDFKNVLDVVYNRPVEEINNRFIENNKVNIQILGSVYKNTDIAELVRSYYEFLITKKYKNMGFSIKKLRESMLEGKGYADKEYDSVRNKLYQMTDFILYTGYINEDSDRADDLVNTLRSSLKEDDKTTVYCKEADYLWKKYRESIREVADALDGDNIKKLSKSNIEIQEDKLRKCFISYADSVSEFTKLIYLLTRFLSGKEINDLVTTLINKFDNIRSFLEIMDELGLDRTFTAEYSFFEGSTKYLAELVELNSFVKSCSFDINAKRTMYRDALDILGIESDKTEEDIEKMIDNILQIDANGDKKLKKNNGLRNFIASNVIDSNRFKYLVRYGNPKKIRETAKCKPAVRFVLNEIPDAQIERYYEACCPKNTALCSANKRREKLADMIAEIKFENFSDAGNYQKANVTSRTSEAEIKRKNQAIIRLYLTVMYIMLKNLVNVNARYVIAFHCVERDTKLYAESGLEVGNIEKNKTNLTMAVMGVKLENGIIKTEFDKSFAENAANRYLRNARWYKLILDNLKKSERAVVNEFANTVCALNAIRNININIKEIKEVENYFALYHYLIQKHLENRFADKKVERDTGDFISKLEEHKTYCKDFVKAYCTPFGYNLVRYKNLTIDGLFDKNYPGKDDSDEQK


target: T1, EsCas13d, nuclease-dead; experiment: crRNA (strand 1, pre-loaded); Mg2+; 40 mM Tris-HCl pH 7.5, 150 mM NaCl, 6 mM MgCl2, 1 mM DTT, 0.1% Tween-20, 0.2 mg/ml BSA; 25 C; 10 min per concentration, then washed; conditions: tags: His6-TwinStrep-SUMO cleaved; N-terminal SNAP kept (SNAP-Surface 488); label: 3' end held by stalled T7 RNA polymerase

Binder | Kd [nM]
target 2 MT 5'PFS AGG 3'PFS CUC (mixed) RNA 1: CACCCGUGCAAAAUUGCAGGGGUCUAAAACCUUCUCCAAAUUGUUUCAUCCU RNA 2: GGGAAUGGAUCCACAUCUACGAAUUCAGGAGGAUGAAACAAUUUGGAGAAGCUCAGAUCGGAAGAGCACACGU | 9.4 ± 1.7
target 2 MT 5'PFS UGG 3'PFS AUC (mixed) RNA 1: CACCCGUGCAAAAUUGCAGGGGUCUAAAACCUUCUCCAAAUUGUUUCAUCCU RNA 2: GGGAAUGGAUCCACAUCUACGAAUUCUGGAGGAUGAAACAAUUUGGAGAAGAUCAGAUCGGAAGAGCACACGU | 5.5 ± 0.6
target 2 MT 5'PFS CUC 3'PFS AUA (mixed) RNA 1: CACCCGUGCAAAAUUGCAGGGGUCUAAAACCUUCUCCAAAUUGUUUCAUCCU RNA 2: GGGAAUGGAUCCACAUCUACGAAUUCCUCAGGAUGAAACAAUUUGGAGAAGAUAAGAUCGGAAGAGCACACGU | 2.11 ± 0.28
target 2 MT 5'PFS GGU 3'PFS UAU (mixed) RNA 1: CACCCGUGCAAAAUUGCAGGGGUCUAAAACCUUCUCCAAAUUGUUUCAUCCU RNA 2: GGGAAUGGAUCCACAUCUACGAAUUCGGUAGGAUGAAACAAUUUGGAGAAGUAUAGAUCGGAAGAGCACACGU | 17.6 ± 3.3
target 2 MT 5'PFS CUC 3'PFS AUC (mixed) RNA 1: CACCCGUGCAAAAUUGCAGGGGUCUAAAACCUUCUCCAAAUUGUUUCAUCCU RNA 2: GGGAAUGGAUCCACAUCUACGAAUUCCUCAGGAUGAAACAAUUUGGAGAAGAUCAGAUCGGAAGAGCACACGU | 1.91 ± 0.31
target 2 MT 5'PFS GGA 3'PFS UUU (mixed) RNA 1: CACCCGUGCAAAAUUGCAGGGGUCUAAAACCUUCUCCAAAUUGUUUCAUCCU RNA 2: GGGAAUGGAUCCACAUCUACGAAUUCGGAAGGAUGAAACAAUUUGGAGAAGUUUAGAUCGGAAGAGCACACGU | 41 ± 9
target 2 MT 5'PFS GUC 3'PFS AGA (mixed) RNA 1: CACCCGUGCAAAAUUGCAGGGGUCUAAAACCUUCUCCAAAUUGUUUCAUCCU RNA 2: GGGAAUGGAUCCACAUCUACGAAUUCGUCAGGAUGAAACAAUUUGGAGAAGAGAAGAUCGGAAGAGCACACGU | 16.8 ± 2.8
target 2 MT 5'PFS GCA 3'PFS CGA (mixed) RNA 1: CACCCGUGCAAAAUUGCAGGGGUCUAAAACCUUCUCCAAAUUGUUUCAUCCU RNA 2: GGGAAUGGAUCCACAUCUACGAAUUCGCAAGGAUGAAACAAUUUGGAGAAGCGAAGAUCGGAAGAGCACACGU | 8.4 ± 1.1
target 2 MT 5'PFS GAC 3'PFS AUU (mixed) RNA 1: CACCCGUGCAAAAUUGCAGGGGUCUAAAACCUUCUCCAAAUUGUUUCAUCCU RNA 2: GGGAAUGGAUCCACAUCUACGAAUUCGACAGGAUGAAACAAUUUGGAGAAGAUUAGAUCGGAAGAGCACACGU | 12.1 ± 2.1
target 2 MT 5'PFS GAU 3'PFS AAA (mixed) RNA 1: CACCCGUGCAAAAUUGCAGGGGUCUAAAACCUUCUCCAAAUUGUUUCAUCCU RNA 2: GGGAAUGGAUCCACAUCUACGAAUUCGAUAGGAUGAAACAAUUUGGAGAAGAAAAGAUCGGAAGAGCACACGU | 6.9 ± 1
target 2 MT 5'PFS UGG 3'PFS AUG (mixed) RNA 1: CACCCGUGCAAAAUUGCAGGGGUCUAAAACCUUCUCCAAAUUGUUUCAUCCU RNA 2: GGGAAUGGAUCCACAUCUACGAAUUCUGGAGGAUGAAACAAUUUGGAGAAGAUGAGAUCGGAAGAGCACACGU | 5.2 ± 0.5
target 2 MT 5'PFS CUC 3'PFS AUG (mixed) RNA 1: CACCCGUGCAAAAUUGCAGGGGUCUAAAACCUUCUCCAAAUUGUUUCAUCCU RNA 2: GGGAAUGGAUCCACAUCUACGAAUUCCUCAGGAUGAAACAAUUUGGAGAAGAUGAGAUCGGAAGAGCACACGU | 1.74 ± 0.26
target 2 MT 5'PFS GAU 3'PFS AAG (mixed) RNA 1: CACCCGUGCAAAAUUGCAGGGGUCUAAAACCUUCUCCAAAUUGUUUCAUCCU RNA 2: GGGAAUGGAUCCACAUCUACGAAUUCGAUAGGAUGAAACAAUUUGGAGAAGAAGAGAUCGGAAGAGCACACGU | 11.8 ± 1.6
target 2 MT 5'PFS CUG 3'PFS UAU (mixed) RNA 1: CACCCGUGCAAAAUUGCAGGGGUCUAAAACCUUCUCCAAAUUGUUUCAUCCU RNA 2: GGGAAUGGAUCCACAUCUACGAAUUCCUGAGGAUGAAACAAUUUGGAGAAGUAUAGAUCGGAAGAGCACACGU | 5.3 ± 1.2
target 2 MT 5'PFS GGA 3'PFS UUC (mixed) RNA 1: CACCCGUGCAAAAUUGCAGGGGUCUAAAACCUUCUCCAAAUUGUUUCAUCCU RNA 2: GGGAAUGGAUCCACAUCUACGAAUUCGGAAGGAUGAAACAAUUUGGAGAAGUUCAGAUCGGAAGAGCACACGU | 28 ± 6
target 2 MT 5'PFS CUC 3'PFS AUU (mixed) RNA 1: CACCCGUGCAAAAUUGCAGGGGUCUAAAACCUUCUCCAAAUUGUUUCAUCCU RNA 2: GGGAAUGGAUCCACAUCUACGAAUUCCUCAGGAUGAAACAAUUUGGAGAAGAUUAGAUCGGAAGAGCACACGU | 2.2 ± 0.4
target 2 MT 5'PFS AUU 3'PFS AUG (mixed) RNA 1: CACCCGUGCAAAAUUGCAGGGGUCUAAAACCUUCUCCAAAUUGUUUCAUCCU RNA 2: GGGAAUGGAUCCACAUCUACGAAUUCAUUAGGAUGAAACAAUUUGGAGAAGAUGAGAUCGGAAGAGCACACGU | 7.5 ± 0.8
target 2 MT 5'PFS GCA 3'PFS CGC (mixed) RNA 1: CACCCGUGCAAAAUUGCAGGGGUCUAAAACCUUCUCCAAAUUGUUUCAUCCU RNA 2: GGGAAUGGAUCCACAUCUACGAAUUCGCAAGGAUGAAACAAUUUGGAGAAGCGCAGAUCGGAAGAGCACACGU | 13.1 ± 1.9
target 2 MT 5'PFS UAU 3'PFS AAU (mixed) RNA 1: CACCCGUGCAAAAUUGCAGGGGUCUAAAACCUUCUCCAAAUUGUUUCAUCCU RNA 2: GGGAAUGGAUCCACAUCUACGAAUUCUAUAGGAUGAAACAAUUUGGAGAAGAAUAGAUCGGAAGAGCACACGU | 16.2 ± 1.5
target 2 MT 5'PFS UCU 3'PFS AUA (mixed) RNA 1: CACCCGUGCAAAAUUGCAGGGGUCUAAAACCUUCUCCAAAUUGUUUCAUCCU RNA 2: GGGAAUGGAUCCACAUCUACGAAUUCUCUAGGAUGAAACAAUUUGGAGAAGAUAAGAUCGGAAGAGCACACGU | 9.3 ± 1.1
target 2 MT 5'PFS CCU 3'PFS UAG (mixed) RNA 1: CACCCGUGCAAAAUUGCAGGGGUCUAAAACCUUCUCCAAAUUGUUUCAUCCU RNA 2: GGGAAUGGAUCCACAUCUACGAAUUCCCUAGGAUGAAACAAUUUGGAGAAGUAGAGAUCGGAAGAGCACACGU | 1.16 ± 0.21
target 2 MT 5'PFS GAU 3'PFS AAC (mixed) RNA 1: CACCCGUGCAAAAUUGCAGGGGUCUAAAACCUUCUCCAAAUUGUUUCAUCCU RNA 2: GGGAAUGGAUCCACAUCUACGAAUUCGAUAGGAUGAAACAAUUUGGAGAAGAACAGAUCGGAAGAGCACACGU | 16 ± 5
target 2 MT 5'PFS AGG 3'PFS CUG (mixed) RNA 1: CACCCGUGCAAAAUUGCAGGGGUCUAAAACCUUCUCCAAAUUGUUUCAUCCU RNA 2: GGGAAUGGAUCCACAUCUACGAAUUCAGGAGGAUGAAACAAUUUGGAGAAGCUGAGAUCGGAAGAGCACACGU | 7.4 ± 0.9
target 2 MT 5'PFS GUC 3'PFS AGG (mixed) RNA 1: CACCCGUGCAAAAUUGCAGGGGUCUAAAACCUUCUCCAAAUUGUUUCAUCCU RNA 2: GGGAAUGGAUCCACAUCUACGAAUUCGUCAGGAUGAAACAAUUUGGAGAAGAGGAGAUCGGAAGAGCACACGU | 15.3 ± 2.1
target 2 MT 5'PFS GGA 3'PFS UUA (mixed) RNA 1: CACCCGUGCAAAAUUGCAGGGGUCUAAAACCUUCUCCAAAUUGUUUCAUCCU RNA 2: GGGAAUGGAUCCACAUCUACGAAUUCGGAAGGAUGAAACAAUUUGGAGAAGUUAAGAUCGGAAGAGCACACGU | 18.1 ± 3.5
target 2 MT 5'PFS GGA 3'PFS UUG (mixed) RNA 1: CACCCGUGCAAAAUUGCAGGGGUCUAAAACCUUCUCCAAAUUGUUUCAUCCU RNA 2: GGGAAUGGAUCCACAUCUACGAAUUCGGAAGGAUGAAACAAUUUGGAGAAGUUGAGAUCGGAAGAGCACACGU | 18.3 ± 2.7
target 1 insU 3' of 14,insA 3' of 4 (mixed) RNA 1: CACCCGUGCAAAAAUGCAGGGGUCUAAAACUGAGCGGAUAACCUCUCUAUGG RNA 2: GGGAAUGGAUCCACAUCUACGAAUUCGUACCAUAGAGAUGGUUAUCCGCAUCACCGAGAUCGGAAGAGCACACGU | 26 ± 4
target 1 C7U,A18G (mixed) RNA 1: CACCCGUGCAAAAAUGCAGGGGUCUAAAACUGAGCGGAUAACCUCUCUAUGG RNA 2: GGGAAUGGAUCCACAUCUACGAAUUCGUACCAUGGAGAGGUUAUUCGCUCACCGAGAUCGGAAGAGCACACGU | ~70
